Drawing on patent US20120035094A1, this text covers % inhibition of the adhesion of platelets to immobilized M.Ab.F11 for two molecules.

The target in test [1] is Monoclonal antibody M.Ab.F11. The test is described as follows: platelet adhesion to immobilized M.Ab.F11 (150 ng/well), BCA protein read-out; peptide at 50 µM.
The target in test [2] is Monoclonal antibody M.Ab.F11. Kind of test: platelet adhesion to immobilized M.Ab.F11 (150 ng/well), BCA protein read-out; peptide at 500 µM.

Regarding KSVTREDTGTYTC [F11R-peptide 4], the % inhibition of the adhesion of platelets to immobilized M.Ab.F11 came out at 10% in test [1] and 70% in test [2].
Consider SVTVHSSEPEVRIPENNPVKLSC [F11R-peptide 1], for which the figures for the % inhibition of the adhesion of platelets to immobilized M.Ab.F11 in test [1] and in test [2] were 60% and 70%, respectively.
